Experimental findings from the Immune Epitope Database (IEDB) are described below.

By Kd is commonly meant the free concentration of one partner at which half of the binding sites on the other are occupied at equilibrium, for simple one-to-one binding.

Experiment [1] deals with HLA-A*02:01. As to the kind of experiment: IEDB peptide-MHC binding, purified MHC/competitive/radioactivity; filed as Kd, often an IC50 or EC50 that approximates it; ≥ and ≤ were set here for values at or beyond the usual limits of such assays.
For another experiment, the target named is HLA-A*02:17. The description is as above.
For experiment [2], the target named is HLA-A*68:02. The experiment in a line: IEDB peptide-MHC binding, purified MHC/competitive/fluorescence; filed as Kd, often an IC50 or EC50 that approximates it; ≥ and ≤ were set here for values at or beyond the usual limits of such assays.
Another experiment has as its target HLA-A*02:06. The experiment in a line: IEDB peptide-MHC binding, purified MHC/competitive/radioactivity; filed as Kd, often an IC50 or EC50 that approximates it; ≥ and ≤ were set here for values at or beyond the usual limits of such assays.
A further experiment concerns the target HLA-A*02:03. The experiment is described as above.
Experiment [3] concerns the target HLA-B*51:01. The experiment in a line: IEDB peptide-MHC binding, purified MHC/direct/fluorescence; filed as Kd, often an IC50 or EC50 that approximates it; ≥ and ≤ were set here for values at or beyond the usual limits of such assays.
Experiment [4] deals with HLA-B*15:01. The experiment is described as above.
In a further experiment the target is HLA-B*07:02. The description is as above.
Another experiment has as its target HLA-B*08:01. As to the kind of experiment: IEDB peptide-MHC binding, purified MHC/competitive/radioactivity; filed as Kd, often an IC50 or EC50 that approximates it; ≥ and ≤ were set here for values at or beyond the usual limits of such assays.
Experiment [5] has as its target HLA-B*51:01. Described as above. The note with it: source organism: Dengue virus 2 Jamaica/1409/1983.
Another experiment has as its target HLA-B*44:03. The description is as above. The note with it: source organism: Lassa virus Josiah.
Another experiment has as its target HLA-B*40:01. The experiment is described as above. The note with it: source organism: Lassa virus Josiah.
The target of another experiment is HLA-B*44:02. Described as above. The note with it: source organism: Lassa virus Josiah.
In a further experiment the target is HLA-A*24:02. The experiment is described as above. The note with it: source organism: Lassa virus Josiah.
Another experiment concerns the target HLA-A*29:02. The description is as above. The conditions noted are these: source organism: Lassa virus Josiah.
The target in the next experiment is HLA-B*40:02. The experiment is described as above. The conditions noted are these: source organism: Lassa virus Josiah.
The target in a further experiment is HLA-B*45:01. The experiment is described as above. The note with it: source organism: Lassa virus Josiah.
The target in a further experiment is HLA-A*23:01. The experiment is described as above. The note with it: source organism: Lassa virus Josiah.
The target of experiment [6] is HLA-B*18:01. The description is as above. The conditions noted are these: source organism: Lassa virus Josiah.
The next experiment addresses HLA-B*58:01. Described as above.
Another experiment concerns the target HLA-A*32:01. Described as above.
The next experiment addresses HLA-B*53:01. The experiment is described as above.
A further experiment concerns the target HLA-B*35:01. Described as above.
Experiment [7] has as its target HLA-A*02:01. As to the kind of experiment: IEDB peptide-MHC binding, purified MHC/competitive/fluorescence; filed as Kd, often an IC50 or EC50 that approximates it; ≥ and ≤ were set here for values at or beyond the usual limits of such assays. The conditions noted are these: source organism: Homo sapiens.
The next experiment concerns the target HLA-A*26:01. The description is as above. The conditions noted are these: source organism: Homo sapiens.
The target in another experiment is HLA-B*57:01. Described as above. The note with it: source organism: Homo sapiens.
The next experiment addresses HLA-A*24:03. The description is as above.
Another experiment concerns the target HLA-B*27:03. The experiment is described as above. The conditions noted are these: source organism: Homo sapiens.
Another experiment addresses HLA-A*03:01. Described as above. The conditions noted are these: source organism: Homo sapiens.
Experiment [8] deals with HLA-B*15:01. The description is as above. The conditions noted are these: source organism: Homo sapiens.
Another experiment addresses HLA-B*46:01. The experiment is described as above. The conditions noted are these: source organism: Homo sapiens.
Experiment [9] addresses HLA-B*18:01. The experiment is described as above. The conditions noted are these: source organism: Homo sapiens.
Experiment [10] concerns the target HLA-A*68:02. As to the kind of experiment: IEDB peptide-MHC binding, purified MHC/competitive/radioactivity; filed as Kd, often an IC50 or EC50 that approximates it; ≥ and ≤ were set here for values at or beyond the usual limits of such assays. The note with it: source organism: Dengue virus 3 Singapore/8120/1995.
Setting [11] is: source organism: Dengue virus 3 Martinique/1243/1999.
Where [12] appears, read: source organism: Dengue virus 2 Jamaica/1409/1983.
[13] abbreviates: source organism: Vibrio cholerae.
The mark [14] stands for this setting: source organism: Dengue virus 1 Nauru/West Pac/1974.
Setting [15] is: source organism: Dengue virus 4 Philippines/H241/1956.
[16] abbreviates: source organism: Dengue virus 1 Singapore/S275/1990.
The mark [17] stands for this setting: source organism: Dengue virus 3 China/80-2/1980.
Where [18] appears, read: source organism: West Nile virus.
[19] abbreviates: source organism: Burkholderia mallei.
[20] abbreviates: source organism: Dengue virus 1 Brazil/97-11/1997.
Setting [21] is: source organism: Dengue virus 3 Singapore/8120/1995.

Turning to QLWTALISL, the Kd with HLA-A*02:01 [1] (setting [11]) came to 1.45 nM; in the experiment with HLA-A*02:17 (setting [11]), 234 nM.

NCADHFEGV registered a Kd with HLA-A*68:02 [2] (source organism: Escherichia coli HS) of 1.5 nM.

For the sequence ALIFILLTAV, the Kd is 0.498 nM with HLA-A*02:01 [1] (setting [12]), 56.8 nM with HLA-A*02:06 (setting [12]), 13.2 nM with HLA-A*02:03 (setting [12]) and ≥ 39400 nM in the experiment with HLA-A*02:17 (setting [12]).

As for LLRQHWLSL, the values for the Kd in the experiment with HLA-B*51:01 [3] (setting [13]), in the experiment with HLA-B*15:01 [4] (source organism: Vibrio cholerae O395) and with HLA-B*07:02 (setting [13]) were ≥ 20000 nM, 49 nM and 13 nM, respectively.

As to MLDVDLHPA, the Kd with HLA-A*02:01 [1] (setting [14]) came out at 75.2 nM; with HLA-A*02:06 (setting [14]), 18 nM; in the experiment with HLA-A*02:17 (setting [14]) it was 19800 nM.

CLWPKTHTL: the Kd amounted to 13.8 nM with HLA-A*02:01 [1] (setting [15]), 5.74 nM in the experiment with HLA-B*08:01 (setting [15]) and 251 nM with HLA-A*02:17 (setting [15]).

Take FLFLMSGKGI: the Kd in the experiment with HLA-A*02:01 [1] (setting [12]) was 39.6 nM; with HLA-B*51:01 [5], 5580 nM; with HLA-A*02:03 (setting [12]), 11.5 nM; with HLA-A*02:17 (setting [12]), 1320 nM.

Consider LMLVALLGA, for which the values for the Kd with HLA-A*02:01 [1] (setting [15]) and with HLA-A*02:17 (setting [15]) were 10400 nM and 2920 nM, respectively.

YDHALMSII: the Kd was ≥ 33400 nM with HLA-B*44:03; ≥ 26600 nM with HLA-B*40:01; 7050 nM in the experiment with HLA-B*44:02; ≥ 30800 nM with HLA-A*24:02; ≥ 46600 nM with HLA-A*29:02; 49.5 nM in the experiment with HLA-B*40:02. Further, the results for the dissociation constant Kd in the experiment with HLA-B*45:01, in the experiment with HLA-A*23:01 and with HLA-B*18:01 [6] were ≥ 68600 nM, 7730 nM and ≥ 25400 nM, respectively.

As to PASAAQRRGR, the Kd with HLA-B*58:01 (setting [15]) was 15400 nM.

Take ALWDVPSPA: the values for the Kd in the experiment with HLA-A*02:01 [1] (setting [15]), in the experiment with HLA-A*02:03 (setting [15]) and with HLA-A*02:17 (setting [15]) were 2.72 nM, 16.8 nM and 885 nM, respectively.

For QIMEVTARW, the figures for the Kd with HLA-B*58:01 (setting [16]) and with HLA-A*32:01 (setting [16]) were 18.6 nM and 56.3 nM, respectively.

Turning to ELWDPSTEA, the Kd with HLA-A*68:02 [2] (source organism: Burkholderia mallei NCTC 10229) amounted to 78.1 nM.

Regarding YLDVDLHPA, the Kd with HLA-A*02:01 [1] (setting [17]) was determined as 4.42 nM; in the experiment with HLA-A*02:06 (setting [11]), 37.2 nM; with HLA-A*02:17 (setting [17]), 1890 nM.

For the sequence NPITLTAAL, the Kd in the experiment with HLA-B*51:01 [3] (source organism: dengue virus type 2) was ≥ 20000 nM; with HLA-B*08:01 (setting [12]) it was 69.6 nM; with HLA-B*53:01 (setting [12]) it was 377 nM; with HLA-B*35:01 (setting [12]), 25.2 nM.

Regarding IPTAAGKNL, the Kd in the experiment with HLA-B*51:01 [3] (setting [18]) was ≥ 20000 nM.

On to KMEKASFIEV, for which the Kd with HLA-A*02:01 [1] (setting [12]) stood at 143 nM; with HLA-A*02:17 (setting [12]) it was 1860 nM.

For KLAQVRRAM, the figures for the Kd in the experiment with HLA-B*51:01 [3] (setting [19]), with HLA-B*15:01 [4] (source organism: Burkholderia mallei ATCC 23344) and in the experiment with HLA-B*07:02 (setting [19]) were ≥ 20000 nM, 27 nM and 6 nM, respectively.

VLMLVAHYA: the Kd with HLA-A*02:01 [1] (setting [16]) worked out at 6.67 nM; with HLA-A*02:03 (setting [20]), 2.73 nM; with HLA-A*02:17 (setting [16]), 13200 nM.

Consider WLGHPFTPV, for which the Kd is 0.3 nM in the experiment with HLA-A*02:01 [7]; ≥ 20000 nM in the experiment with HLA-A*26:01; ≥ 20000 nM with HLA-B*57:01; ≥ 20000 nM with HLA-A*24:03 (source organism: Homo sapiens); ≥ 20000 nM in the experiment with HLA-B*27:03; ≥ 20000 nM with HLA-A*03:01. For the same sequence, the Kd in the experiment with HLA-B*15:01 [8], with HLA-B*46:01 and in the experiment with HLA-B*18:01 [9] was ≥ 20000 nM each time.

As to MALKLITQF, the Kd with HLA-B*53:01 (setting [11]) was found to be 22.4 nM; with HLA-B*58:01 (setting [11]) it was 2.16 nM; with HLA-B*35:01 (setting [11]) it was 1.25 nM.

Regarding PFGQWDQTF, the Kd in the experiment with HLA-A*24:03 (source organism: Yersinia pestis Antiqua) was 209 nM.

For the sequence MIAGVLFTFV, the Kd with HLA-A*02:01 [1] (setting [17]) worked out at 10.7 nM; with HLA-A*68:02 [10] it was 1.75 nM; with HLA-A*02:06 (setting [21]), 2.44 nM; with HLA-A*02:03 (setting [21]), 1.85 nM; in the experiment with HLA-A*02:17 (setting [17]), 423 nM.

Turning to LMLLALIAV, the values for the Kd with HLA-A*02:01 [1] (setting [16]), in the experiment with HLA-A*02:06 (setting [20]) and with HLA-A*02:17 (setting [16]) were 23.3 nM, 8.08 nM and 553 nM, respectively.

Turning to RTVFFVLMM, the equilibrium dissociation constant (Kd) is 635 nM with HLA-B*58:01 (setting [15]) and ≥ 51300 nM in the experiment with HLA-A*32:01 (setting [15]).

RVIDSRKSV yielded a Kd with HLA-B*51:01 [3] (setting [18]) of 1600 nM.

On to IASAIVLEF, for which the Kd with HLA-B*53:01 (setting [11]) stood at 7.65 nM; with HLA-B*58:01 (setting [11]), 2.88 nM; with HLA-B*35:01 (setting [11]), 8.89 nM.
